In paper PMC11026164 (Nature Nanotechnology, 2024):

Key:
[1] = Insulin loading capacity on QDs (14C-INS, dialysis); assay type: physicochemical
Protocol: Three individual experiments (batches) were performed per group.

[2] = ζ-potential / isoelectric point by DLS (Zetasizer); assay type: physicochemical
Protocol: HD diameter, polydispersity index and ζ-potential were measured using the Zetasizer Nano ZS instrument (Malvern […]) at Sydney Analytical, the University of Sydney. CSIRO samples were measured on a Malvern Instruments Zetasizer Nano instrument ZEN3600 with a 4 mW 633 nm He–Ne gas laser. […] HD diameter and polydispersity index measurements were performed using backscatter (173°) data collection with three repeats of 12–15 measurements per sample. All the samples were analysed in disposable folded capillary cells. […] 1 mg/ml solutions (5 mL total volume) were prepared for each solution. pH was adjusted to pH 3 with 1 M HCl using a pH meter. Images were collected as the pH was raised by the addition of 1 M NaOH. Images show the product solution at each pH. […] Data expressed as the mean ± s.d. (n = 3 independent batches). ζ-potential of each sample was measured using DLS. Data expressed as the mean ± s.d. (n = 3 independent batches).

C57BL/6J mice = assay: Oral glucose tolerance test (oGTT); assay type: in vivo; conditions: n = 5; for effect of constituents on oGTT AUC: QD 0.6 µg, QD-INS 0.6 µg, 20 IU/kg, CS/GS 10 µg, QD-CS/GS 0.6 µg, 10 µg, insulin alone given orally 100 IU/kg, 15 min before glucose
Protocol: oGTT was performed following a 4-h fast. BG was measured using a handheld glucometer using Accu-Chek proforma strips. Blood was collected following a tail snip. BG was collected prior and for 90 min after an oral bolus of 2 g kg^–1 glucose solution. The AUC was determined based on the mmol l^–1 × min.

[3] = HPLC–MS of released insulin; assay type: physicochemical; conditions: release by hydrolysis for 28 days at 23 °C
Protocol: Cleavage of CS/GS and removal of QDs were promoted by enzyme co-incubation (i). […] Release was promoted by hydrolysis for 28 days at 23 °C. […] Oleic acid was used as a positive control of cellular uptake and activity. […] Data points, mean ± s.d. shown [n = 3 independent experiments (a and b); n = 3 biologically independent cells (d and e) and one-way ANOVA with Tukey’s correction; α = 0.05]. a and b created with BioRender.com.

STZ-treated rats [4] = assay: ITT in STZ-treated rats; assay type: in vivo, Wistar rats; conditions: SC-INS 5–40 IU kg^–1; QD-INS–CS/GS 10–150 IU kg^–1; n = 5
Protocol: After a month of acclimation and animal handling, rats were given a single intraperitoneal injection of STZ (65 mg kg^–1) and provided with high-glucose water (10%) for 2 days. Animals were monitored and BG checked for 10 days post-injection. Diabetic rats were identified following two repeat BG measurements at >11.1 mmol l^–1.
ITT was performed as above; rats were treated with 5–40 IU kg^–1 SC-INS or 10–150 IU kg^–1 QD-INS–CS/GS. All the ITT data presented in this manuscript used n = 5 mice per group.

NOD/ShiLtJ mice = assay: Insulin tolerance test (ITT) in NOD diabetic mice; assay type: in vivo
Protocol: Ten-week-old female NOD/ShiLtJ mice were obtained from the Animal Resource Centre in Perth. Animals were housed at the ANZAC Research Institute animal house on a 12-h light/dark cycle and provided with ad libitum access to food and water; 20–25 °C; 50–60% relative humidity; and bedding, ventilated caging systems and enrichment as per the ARRIVE guidelines. NOD/ShiLtJ mice were monitored weekly for BG changes, with mice developing T1D between weeks 12 and 24 in 90% of female mice. Diabetic mice were identified following two repeat BG measurements at >11.1 mmol l^–1.
ITT was performed with/without a 4-h fast. BG was measured using a handheld glucometer using Accu-Chek proforma strips. Blood was collected from a tail snip. […] The AUC was determined based on mmol l^–1 × min.

[5] = Tissue biodistribution of 14C-INS in mice; assay type: in vivo, C57BL/6J mice; conditions: for tissue distribution, in words: SC-INS 2 IU kg^–1 s.c., QD-INS–CS/GS and Oral-INS 20 IU kg^–1 by gavage
Protocol: (§1) For biodistribution studies, the mice were not fasted before either a subcutaneous injection of ^14C-INS (100,000 DPM, 2 IU kg^–1) or a gavage of QD-^14C-INS–CS/GS or ^14C-INS (100,000 DPM, 20 IU kg^–1). Gavage was performed using an oesophageal gavage needle and delivered in a single rapid dose (100 µl). Blood samples were collected from a tail snip (20 µl) over 0–8 h. Mice were euthanized by a single intraperitoneal injection of 100 mg kg^–1 ketamine and 10 mg kg^–1 xylazine in saline at 0.5, 2.0 and 24.0 h post-gavage. Then, 200–250 mg of tissue samples was collected from the liver, spleen, kidneys, lungs, muscles, fat and small intestine (duodenum) along with 100 μl of blood.
(§2) Tissue and blood samples were weighed, mixed with 1 ml solvable solution and incubated at 60 °C for 4 h to dissolve. Then, 0.2 ml of 30% H2O2 was added to reduce the dark colour saturation. […] Samples were mixed with 10 ml scintillation fluid (five measurements per sample). Baseline measurements were collected from control mice (n = 3) that were not treated with radioactive samples. Data were collected and analysed as disintegrations per minute.

[6] = Blood pharmacokinetics of 14C-INS in mice; assay type: in vivo, C57BL/6J mice; conditions: subcutaneous 2 IU kg^–1, 14C-INS in blood, n = 3
Protocol: as §1, §2

NOD mice = assay: Two-week chronic dosing in NOD mice; assay type: in vivo, NOD/ShiLtJ mice; conditions: chronic 2-week subcutaneous dosing
Protocol: Early and moderate diabetic mice were given a single treatment of SC-INS (1 IU kg^–1) or QD-INS–CS/GS (25 IU kg^–1), whereas late diabetics were given 4 and 100 IU kg^–1, respectively. An ITT was performed with BG collected at 0.25, 0.50, 0.75 and 1.00 h. […] BG was recorded daily and was maintained below 11.1 mmol l^–1 for the duration of treatment. […] BG was recorded daily and was maintained between 15 and 25 mmol l^–1 for the duration of treatment. […] Data points, mean ± s.d. shown (n = 5 biologically independent animals; one-way ANOVA with Tukey’s correction (a) and two-tailed unpaired t-test; α = 0.05 (c, e and f)).

STZ-treated rats [7] = assay: Chronic dosing in STZ-treated rats; assay type: in vivo, Wistar rats; conditions: 40 IU kg^–1 day^–1 subcutaneous
Protocol: Rats were maintained on either treatment for 2–6 weeks, with BG measured morning and evening (prior and 1 h post-injection).
Following experimentation, the rats were euthanized by a single intraperitoneal injection of 75 mg kg^–1 ketamine and 10 mg kg^–1 xylazine in saline. Blood, liver and pancreas tissue samples were collected. Plasma was collected and analysed for biochemistry and lipid parameters as above.

[8] = Appearance and solubility by optical density at pH 3 to 9; assay type: physicochemical; conditions: 1 mg/ml solutions (5 mL), pH raised from 3 to 9 with 1 M NaOH, mean of n = 3 independent batches
Protocol: 1 mg/ml solutions (5 mL total volume) were prepared for each solution. pH was adjusted to pH 3 with 1 M HCl using a pH meter. Images were collected as the pH was raised by the addition of 1 M NaOH. Images show the product solution at each pH. […] Data expressed as the mean ± s.d. (n = 3 independent batches). ζ-potential of each sample was measured using DLS. Data expressed as the mean ± s.d. (n = 3 independent batches).

Stability by NMR = assay type: physicochemical; conditions: 1 mg/ml in MQ water, 23 °C, 60% humidity with light exposure, 7 and 28 days
Protocol: Individual sample stock was prepared in 90% MQ water and 10% D2O at pH 7. For NMR data acquisition, 550 µl samples from each stock were transferred to a 5 mm NMR tube. All one-dimensional ^1H experiments (water suppression pulse sequence, zgesgp; time domain, 32 K; relaxation delay, 2 s; spectral width, 12.5 ppm; number of scans, 256) were collected on a Bruker 800 MHz spectrometer using a Z-gradient TCI probe at 298 K. Two-dimensional [^1H,^1H] NOESY spectra were collected on a 600 MHz spectrometer with a cryoprobe at 298 K. Data were collected and processed using TopSpin. The water offset was set to 4.697 ppm. Before Fourier transformation from the time domain to the frequency domain, the time-domain data were zero filled twice, and an exponential decay function with a line-broadening factor of 5 Hz was multiplied. Data were processed using TopSpin. For stability measurements, the samples were stored at a lab temperature of ~295 ± 2 K.
Extended Data Fig. 4 NMR characterization and stability of QD-INS–CS/GS and 2D [^1H,^1H]-NOESY NMR characterization of CS/GS. […] Stability of samples were evaluated at 1 mg/ml, in MQ water solution, 23 °C, 60% humidity with light exposure for 7 and 28 days. […] (b) Left panel: 2D [^1H, ^1H]-NOESY spectrum of maltose. Right panel: 2D [^1H, ^1H]-NOESY spectrum of chitosan and glucose (CS/GS) copolymer. […]

[9] = 0.5 h, subcutaneous 2 IU kg^–1, n = 3
[10] = 2 h, subcutaneous 2 IU kg^–1, n = 3

## QD-INS: insulin bound to 3-MPA-capped Ag2S QDs by EDC/NHS chemical crosslinking
[1]; 14C-INS, 10 kDa dialysis, QDs 0.5–35.2 µg ml^–1, insulin 5.0 µg ml^–1, n = 3 batches
  maximum insulin retention (loading capacity of insulin onto QDs): 80%
[1]; based on the molar ratios
  insulin molecules per QD: 1–2
[2]
  ζ-potential at pH 7: negative
[2]; n = 3 independent batches
  ζ-potential between pH 3 and pH 6: near-zero
C57BL/6J mice
  effect of constituents on oGTT AUC: no differences compared to controls
[3]
  released insulin present as monomer: 87.5%

## insulin human recombinant
STZ-treated rats [4]
  dose dependence in ITT: dose-dependent effect
NOD/ShiLtJ mice; SC-INS 0–2 IU kg^–1, QD-INS–CS/GS 0–50 IU kg^–1 by gavage
  effect of escalating dosage on BG in ITT: dose-dependent reduction in BG
NOD/ShiLtJ mice; subcutaneous 1 IU kg^–1
  time to decrease of BG: ≤ 15 min
NOD/ShiLtJ mice; subcutaneous 1 IU kg^–1, single dose, n = 5
  reduction in ITT AUC: 40%
[5]; [9]
  distribution in the blood: 40%
  distribution in the liver: 40%
  distribution in the muscles/fat: 20%
[5]; [10]
  distribution in the kidneys: 10%
  distribution in the liver: 50%
  distribution in the small intestine: 20%
[5]; listed as Oral-INS
  tissue distribution, in words: remained in the small intestine
[5]; listed as SC-INS
  tissue distribution, in words: greater distribution in the muscles and fat
[6]
  Cmax: 0.1 IU ml^–1
  Tmax: 15 min
  T½: 15 min
NOD mice
  time of return of BG to baseline post-treatment: 8 h
STZ-treated rats [7]
  time of return of BG to baseline: ≤ 8 h
C57BL/6J mice
  effect of constituents on oGTT AUC: No effect on AUC
C57BL/6J mice; high dose 5 IU kg^–1 subcutaneous
  hypoglycaemia (BG < 3.0 mmol l^–1): induced hypoglycaemia
[8]
  pH at which the material is insoluble: 5
Stability by NMR
  stability of samples by NMR: minimal changes
